This is an account of results in patent CN108503708A (BEIJING WISDOMAB BIOTECHNOLOGY CO LTD; GENRIX SHANGHAI …, dated 2018).

Where only a bound is given, the exact number is not on record here.

The target of experiment [1] is T1, hCD47-mFc (human CD47 extracellular region D1 fused to mouse IgG2a Fc) (human (homo sapiens)).
T1 construct: no linker is stated
The experiment is described as follows: competition ELISA: hCD47-mFc coated, fixed hCD172a-D1M1-His as competitor, antibody titrated. For orientation: An ELISA detects its analyte on a solid surface through an enzyme-linked reagent.

The target of experiment [2] is T1, hCD47-mFc (human CD47 extracellular …). The experiment is described as follows: competition ELISA by the method of Example 3 (hCD47-mFc coated, hCD172a-D1M1-His as competitor).
Experiment [3] has the same target. The description is as above. This is another data set of the same source.
Experiment [4] concerns the target T2, huCD47-D1-his (recombinant human CD47 extracellular region D1 with C-terminal His tag) (human (homo sapiens), UniProt Q08722 19-141).
T2 construct: Expressed in HEK293 cells; analyte in the Biacore measurements and antigen of the phage panning; also called huCD47-his; hCD47; not shown: His tag added at the C-terminus
Nature of the experiment: SPR BIAcore, by the method of Example 3 (antibody captured, huCD47-D1-his analyte). (SPR reads the build-up and loss of mass on a sensor chip optically.)

Experiment [5] concerns the target T2, huCD47-D1-his (recombinant human CD47 …). The experiment is described as follows: SPR Biacore X100, antibody captured via anti-human Fc on CM5, huCD47-D1-his as analyte, 25 C.
Experiment [6] concerns the target T1, hCD47-mFc (human CD47 extracellular …). Nature of the experiment: competition ELISA: hCD47-mFc coated, fixed hCD172a-D1M1-His as competitor, antibody titrated. The source holds these as a separate data set.
Experiment [7] addresses T2, huCD47-D1-his (recombinant human CD47 …). The experiment is described as follows: SPR BIAcore, against hS2C3 as reference.
Experiment [8] concerns the target T1, hCD47-mFc (human CD47 extracellular …). The experiment is described as follows: competition ELISA by the method of Example 3 (hCD47-mFc coated, hCD172a-D1M1-His as competitor). The source holds these as a separate data set.
Experiment [9] deals with T2, huCD47-D1-his (recombinant human CD47 …). The experiment is described as follows: SPR BIAcore, by the method of Example 3 (antibody captured, huCD47-D1-his analyte). The source holds these as a separate data set.
The target is the same in experiment [10]. Nature of the experiment: solid-phase phage panning on huCD47-D1-his, three rounds.

B1: Hu5F9-G4 (humanized anti-CD47 monoclonal antibody) (antibody, human IgG4, V domains shown)
VH: QVQLVQSGAEVKKPGASVKVSCKASGYTFTNYNMHWVRQAPGQRLEWMGTIYPGNDDTSYNQKFKDRVTITADTSASTAYMELSSLRSEDTAVYYCARGGYRAMDYWGQGTLVTVSS
VL: DIVMTQSPLSLPVTPGEPASISCRSSQSIVYSNGNTYLGWYLQKPGQSPQLLIYKVSNRFSGVPDRFSGSGSGTDFTLKISRVEAEDVGVYYCFQGSHVPYTFGQGTKLEIK
notes: Prepared after US 9017675B2; labelled IgG4; also called Hu5F9-IgG4; hu5F9-IgG4
Take B1: the concentration for half-maximal inhibition (IC50) in experiment [1] came out at 9.61 nM; in [2], 4.16 nM.

B2: hS4D12-IgG4 (humanized S4D12) (antibody, V domains shown)
VH: QVQLVQSGAEVKKPGASVKVSCKASGYTFTNYWMHWVRQRPGQGLEWIGVIAPSDNYTNYNQKFQGRVTMTVDTSTSTVYMELSSLRSEDTAVYYCTKGGKYSMDYWGQGTTVTVSS
VL: DIVMTQTPLSLPVTPGEPASISCRSSQSIVHSNGNTYLEWYLQKPGQSPQLLIYKVSNRFSGVPDRFSGSGSGTDFTLKISRVEAEDVGVYYCFQGSHVPFTFGQGTKLEIK
In experiment [3], B2 returned a half-maximal inhibitory concentration (IC50) of less than 5 nM. In experiment [4], the Kd was 9.6 nM, the koff was 0.0118 s⁻¹ and the association rate constant (kon) stood at 1.22e+06 M⁻¹ s⁻¹. Moreover, the half-maximal inhibitory concentration (IC50) in experiment [2] worked out at 2.68 nM.

B3: S2C3-IgG4 (mouse-human chimeric antibody, human IgG4-kappa) (antibody, V domains shown)
VH: QIQLQQSGPELVKPGASVKISCKASGYTFTDYYMHWVKQRPGQGLEWIGWINPSSGNTKYAQKFQDKATLTVATSSSTAYMQLSSLTSEDTAVYFCARREEDYFDYWGQGTLVTVSS
VL: DIVMSQSPSSLAVSVGEKVTMSCKSSQSLLYPSNKKNYLTWYQQKPGQSPKLLIYWASTRESGVPDRFTGSGSGTDFTLTISSVKAEDLAVYYCQEYYAYPLSFGAGTKLEIKR
notes: also called 人-鼠嵌合单抗S2C3
Take B3: the figures for the Kd in experiment [5] and in experiment [4] were 25.1 nM and 18.5 nM, respectively. In addition, the results for the koff in experiment [5] and in experiment [4] were 0.0222 s⁻¹ and 0.0205 s⁻¹, respectively. Further, the on-rate constant (kon) in [5] came to 886000 M⁻¹ s⁻¹; in experiment [4] it was 1.11e+06 M⁻¹ s⁻¹. The IC50 in experiment [6] was 2 to 5 nM; in experiment [1] it was 5.19 nM.

B4: S2H2-IgG4 (mouse-human chimeric antibody, human IgG4-kappa) (antibody, V domains shown)
VH: QVQLQQPGAEVVKPGASVKMSCKASGYTLSSYWMHWVKQRPGQGLEWIGTIDRSDSYISYNQKFKGKATLTVDTSSGTVYMQLNSLTSEDSAVYYCTRGGPYGSKMMDNWGQGTSVTVSS
VL: DIQMNQSPSSLSASLGDTITITCHASQNINVWLSWYQQKPGNIPKLLIYKASNLHTGVPSRFSGSGSGTGFTLTISSLQPEDIATYYCQQGQSYPLTFGTGTKLELKR
notes: also called 人-鼠嵌合单抗S2H2
With B4, in experiment [5], the Kd worked out at 9.71 nM, the dissociation rate constant (koff) amounted to 0.00696 s⁻¹ and the on-rate constant (kon) stood at 717000 M⁻¹ s⁻¹. For the same molecule, the IC50 in experiment [6] fell in the range of 2 to 5 nM. The molecule further returned a half-inhibitory concentration (IC50) in experiment [1] of 2.08 nM.

B5: H11E5+L25B8 (affinity-matured variant of hS2C3) (antibody, V domains shown)
VH: QVQLVQSGAEVKKPGASVKVSCKASGYTFTDYYMHWVRQAPGQRLEWMGWIYPSSGNTKYAQKFKDRVTMTRDTSTSTVYMELSSLRSEDTAVYYCARREEDYFDYWGQGTLVTVSS
VL: DIVMTQSPDSLAVSLGERATINCKSSQSLLYSSNKKNYLTWYQQKPGQPPKLLIYWASTRESGVPDRFSGSGSGTDFTLTISSLQAEDVAVYYCQQFYAYPISFGQGTKLEIK
notes: Humanized monoclonal antibody
For B5, the “fold improvement of affinity over hS2C3” value in experiment [7] is 10 fold. Besides, the IC50 in experiment [3] is less than 5 nM. This molecule came in with an IC50 in experiment [8] of 4.13 nM. In addition, in experiment [9], the dissociation constant (Kd) was 0.807 nM, the koff came out at 0.00096 s⁻¹ and the association rate constant (kon) was 1.19e+06 M⁻¹ s⁻¹.

B6: H10C7+L25B8 (affinity-matured variant of hS2C3) (antibody, V domains shown)
VH: QVQLVQSGAEVKKPGASVKVSCKASGYTFTDYYMHWVRQAPGQRLEWMGWIYPGSGNTRYSQKFKDRVTMTRDTSTSTVYMELSSLRSEDTAVYYCARREEDYFDYWGQGTLVTVSS
VL: DIVMTQSPDSLAVSLGERATINCKSSQSLLYSSNKKNYLTWYQQKPGQPPKLLIYWASTRESGVPDRFSGSGSGTDFTLTISSLQAEDVAVYYCQQFYAYPISFGQGTKLEIK
notes: Humanized monoclonal antibody
In turn, B6 gave an IC50 in experiment [3] of less than 5 nM. This molecule also showed an IC50 in [8] of 4.51 nM. In experiment [9], the Kd is 1.11 nM, the off-rate constant (koff) stood at 0.00115 s⁻¹ and the kon was determined as 1.03e+06 M⁻¹ s⁻¹.

B7: hS2C3-IgG4 (humanized S2C3) (antibody, V domains shown)
VH: QVQLVQSGAEVKKPGASVKVSCKASGYTFTDYYMHWVRQAPGQRLEWMGWINPSSGNTKYAQKFQDRVTMTRDTSTSTVYMELSSLRSEDTAVYYCARREEDYFDYWGQGTLVTVSS
VL: DIVMTQSPDSLAVSLGERATINCKSSQSLLYPSNKKNYLTWYQQKPGQPPKLLIYWASTRESGVPDRFSGSGSGTDFTLTISSLQAEDVAVYYCQEYYAYPLSFGQGTKLEIK
For the molecule B7, the IC50 is less than 5 nM in experiment [3], 4.13 nM in experiment [8] and 3.36 nM in experiment [2]. In addition, the dissociation constant Kd in experiment [9] was determined as 9.55 nM; in [4], 10.1 nM. Also, the dissociation rate constant (koff) was 0.0103 s⁻¹ in experiment [9] and 0.011 s⁻¹ in experiment [4]. Moreover, the results for the kon in [9] and in experiment [4] were 1.08e+06 M⁻¹ s⁻¹ and 1.09e+06 M⁻¹ s⁻¹, respectively.

B8: S2H2 (mouse scFv clone displayed on phage) (scFv)
scFv: QVQLQQPGAEVVKPGASVKMSCKASGYTLSSYWMHWVKQRPGQGLEWIGTIDRSDSYISYNQKFKGKATLTVDTSSGTVYMQLNSLTSEDSAVYYCTRGGPYGSKMMDNWGQGTSVTVSSGGGGSGGGGSGGGGSDIQMNQSPSSLSASLGDTITITCHASQNINVWLSWYQQKPGNIPKLLIYKASNLHTGVPSRFSGSGSGTGFTLTISSLQPEDIATYYCQQGQSYPLTFGTGTKLELK
notes: also called 鼠单链抗体S2H2; 鼠单抗S2H2
For B8, the binding result in experiment [10] was “binds”.

B9: S4D12-IgG4 (mouse-human chimeric antibody, human IgG4-kappa) (antibody, V domains shown)
VH: QVQLQQPGAELVKPGASVKMSCKASGYTFTNYWMHWVKQRPGQGLEWIGVIAPSDNYTNYNQKFQGKATLTVDTSSSTAYMQLSSLTSEDSAVYYCTKGGKYSMDYWGQGTSVTVSS
VL: DVLMTQTPLSLPVSLGDQASISCRSSQSIVHSNGNTYLEWYLQKPGQSPKLLIYKVSNRFSGVPDRFSGSGSGTDFTLKISRVEAEDLGVYYCFQGSHVPFTFGSGTKLEIKR
notes: also called 人-鼠嵌合单抗S4D12
In the case of B9, in experiment [5], the Kd was 10.1 nM, the off-rate (koff) was 0.0142 s⁻¹ and the kon was determined as 1.41e+06 M⁻¹ s⁻¹. For the same molecule, the IC50 in experiment [1] was 3.89 nM. In addition, in [4], the Kd came out at 8.56 nM, the off-rate constant (koff) was 0.011 s⁻¹ and the kon was 1.28e+06 M⁻¹ s⁻¹.

B10: S2C3 (mouse scFv clone displayed on phage) (scFv)
scFv: QIQLQQSGPELVKPGASVKISCKASGYTFTDYYMHWVKQRPGQGLEWIGWINPSSGNTKYAQKFQDKATLTVATSSSTAYMQLSSLTSEDTAVYFCARREEDYFDYWGQGTLVTVSSGGGGSGGGGSGGGGSDIVMSQSPSSLAVSVGEKVTMSCKSSQSLLYPSNKKNYLTWYQQKPGQSPKLLIYWASTRESGVPDRFTGSGSGTDFTLTISSVKAEDLAVYYCQEYYAYPLSFGAGTKLEIK
notes: also called 鼠单链抗体S2C3; 鼠单抗S2C3
For the molecule B10, in experiment [10], the binding result is on record as “binds”.

B11: S4D12 (mouse scFv clone displayed on phage) (scFv)
scFv: QVQLQQPGAELVKPGASVKMSCKASGYTFTNYWMHWVKQRPGQGLEWIGVIAPSDNYTNYNQKFQGKATLTVDTSSSTAYMQLSSLTSEDSAVYYCTKGGKYSMDYWGQGTSVTVSSGGGGSGGGGSGGGGSDVLMTQTPLSLPVSLGDQASISCRSSQSIVHSNGNTYLEWYLQKPGQSPKLLIYKVSNRFSGVPDRFSGSGSGTDFTLKISRVEAEDLGVYYCFQGSHVPFTFGSGTKLEIK
notes: also called 鼠单链抗体S4D12; 鼠单抗S4D12
B11: the binding result in experiment [10] is “binds”.

Broadly, the IC50 is the concentration at which inhibition is half-maximal. Broadly, the Kd is a measure of binding affinity in units of concentration. One may read the koff as the first-order rate constant of dissociation. What is called kon is the second-order rate constant of association.
